Measured values as given in patent US20140377289A1, “Metallodrugs Having Improved Pharmacological Properties, and Methods of Manufacture and Use Thereof” (MetalloPharm, LLC, priority 2011, published 2014).
Where no end group is shown, it is not given here. [ ]: non-standard residue; d: D form. Cha = N[C@@H](CC1CCCCC1)C(=O)O

What was measured:
[1] = biological target: T1, B. anthracis lethal factor (B. anthracis), P15917
T1 chain: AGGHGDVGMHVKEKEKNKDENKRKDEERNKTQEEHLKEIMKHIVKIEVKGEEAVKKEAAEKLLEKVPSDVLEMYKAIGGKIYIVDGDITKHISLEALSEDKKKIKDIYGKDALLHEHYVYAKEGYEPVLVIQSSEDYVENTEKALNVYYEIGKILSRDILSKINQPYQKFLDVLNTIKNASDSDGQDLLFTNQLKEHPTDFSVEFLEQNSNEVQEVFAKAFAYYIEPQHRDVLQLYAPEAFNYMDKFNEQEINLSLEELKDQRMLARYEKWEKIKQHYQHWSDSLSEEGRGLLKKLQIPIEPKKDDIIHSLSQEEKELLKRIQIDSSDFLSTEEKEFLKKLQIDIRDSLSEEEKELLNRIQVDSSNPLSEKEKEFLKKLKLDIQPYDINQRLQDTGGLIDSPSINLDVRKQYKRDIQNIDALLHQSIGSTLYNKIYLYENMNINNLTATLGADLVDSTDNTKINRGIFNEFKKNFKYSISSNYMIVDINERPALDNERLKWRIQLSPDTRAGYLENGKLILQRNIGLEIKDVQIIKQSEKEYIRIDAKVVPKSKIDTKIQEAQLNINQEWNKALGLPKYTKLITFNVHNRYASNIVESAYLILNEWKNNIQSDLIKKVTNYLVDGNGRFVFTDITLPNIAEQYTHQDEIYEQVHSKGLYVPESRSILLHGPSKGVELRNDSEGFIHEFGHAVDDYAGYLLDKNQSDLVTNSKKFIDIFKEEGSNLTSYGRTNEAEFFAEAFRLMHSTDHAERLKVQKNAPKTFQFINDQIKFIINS

[2] = biological target: T1, B. anthracis lethal factor (B. …); test: cell-based or functional assay
[3] = biological target: HCV protease (hepatitis C virus (HCV)); test: cell-based or functional assay
[4] = biological target: HCV protease (hepatitis C virus (HCV)); test: apparent binding affinity for HCV protease; method not described
[5] = biological target: T2, metalloproteinase ECE-1 protease, P42892; test: apparent binding affinity for ECE-1; method not described
T2 chain: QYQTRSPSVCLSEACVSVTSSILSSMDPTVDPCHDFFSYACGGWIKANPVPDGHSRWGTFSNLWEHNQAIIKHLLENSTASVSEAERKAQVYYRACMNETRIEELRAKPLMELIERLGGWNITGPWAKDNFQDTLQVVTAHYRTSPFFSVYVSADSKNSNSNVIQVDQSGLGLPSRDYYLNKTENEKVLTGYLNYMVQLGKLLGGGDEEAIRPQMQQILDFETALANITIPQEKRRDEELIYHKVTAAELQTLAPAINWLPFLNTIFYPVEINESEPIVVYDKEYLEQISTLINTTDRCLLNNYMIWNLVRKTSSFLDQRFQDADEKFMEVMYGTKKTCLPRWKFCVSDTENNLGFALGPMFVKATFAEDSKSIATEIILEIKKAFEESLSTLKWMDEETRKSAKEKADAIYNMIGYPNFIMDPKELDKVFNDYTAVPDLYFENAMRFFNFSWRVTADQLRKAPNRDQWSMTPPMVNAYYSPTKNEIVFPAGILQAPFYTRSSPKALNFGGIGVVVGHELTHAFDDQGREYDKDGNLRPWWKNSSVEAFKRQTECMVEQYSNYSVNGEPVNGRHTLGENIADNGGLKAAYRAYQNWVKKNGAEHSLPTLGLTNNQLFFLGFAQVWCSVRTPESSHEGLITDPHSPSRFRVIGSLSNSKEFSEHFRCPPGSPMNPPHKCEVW

[6] = biological target: T2, metalloproteinase ECE-1 protease, P42892; test: cell-based or functional assay
[7] = biological target: T3, S. aureus sortase A (S. aureus), Q2FV99; test: apparent binding affinity (IC50) for S. aureus sortase A; assay not described
T3 chain: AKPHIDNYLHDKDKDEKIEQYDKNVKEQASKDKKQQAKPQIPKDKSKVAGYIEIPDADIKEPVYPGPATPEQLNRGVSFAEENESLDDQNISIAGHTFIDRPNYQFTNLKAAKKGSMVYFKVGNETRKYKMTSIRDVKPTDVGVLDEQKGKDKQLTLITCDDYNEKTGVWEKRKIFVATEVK

[8] = biological target: HCV protease (hepatitis C virus (HCV)); test: inhibition constant for HCV protease (FIG. 1, left); method not described
[9] = biological target: HCV protease (hepatitis C virus (HCV)); test: affinity of metallopeptide for HCV protease; method not described

GCHP (modifications not checked) [Cu-GCHP]
Ka [1]: 45000 M⁻¹ | kinact [2]: 0.077 min⁻¹

GGHGD[dE]LI[Cha]T (also: Cu complex) [Cu-GGHGDeLI(Cha)T]
kinact [3]: 0.042 min⁻¹ | Ka [4]: 33000 M⁻¹

GGHGGDF (modifications not checked) [Cu-GGHGGDF]
Ka [5]: 80000 M⁻¹ | kinact [6]: 0.5 min⁻¹

GGHGLPETG (modifications not checked) [Cu-…]
IC50 [7]: > 100 µM

GGHLPET (modifications not checked) [Cu-GGHLPET]
IC50 [7]: > 100 µM

KGHK (modifications not checked) [Cu-KGHK]
Ka [1]: 125000 M⁻¹ | kinact [2]: 0.035 min⁻¹

GGHGLPET (modifications not checked) [Cu-GGHGLPET]
IC50 [7]: > 100 µM

GGHGD[dE]LI[Cha]C-OH (also: Cu complex) [Cu-GGHGDeLI(Cha)C-CO2^-]
kinact [3]: 0.0014 min⁻¹ | rate constant for inactivation kinact [3]: < 0.083 h⁻¹ | Ka [4]: 2e+06 M⁻¹ | Ki [8]: 0.5 µM

GGHLPETG (modifications not checked) [Cu-GGHLPETG]
IC50 [7]: > 100 µM

GGHD[dE]LI[Cha]CP[Cha]DL [Gly-Gly-His-Asp-D-Glu-Leu-Ile-Cha-Cys-Pro-Cha-Asp-Leu]
affinity [9]: 10 nM
